Patent publication US9988424 (DUKE UNIVERSITY, dated 2018)

Experiments:
MLV gp70 carrier protein = molecular target: T1, MLV gp70 carrier protein; assay: ELISA OD405nm, bar chart, antibody concentration not given
T1 construct: also called MuLV gp70
T1 carrier protein: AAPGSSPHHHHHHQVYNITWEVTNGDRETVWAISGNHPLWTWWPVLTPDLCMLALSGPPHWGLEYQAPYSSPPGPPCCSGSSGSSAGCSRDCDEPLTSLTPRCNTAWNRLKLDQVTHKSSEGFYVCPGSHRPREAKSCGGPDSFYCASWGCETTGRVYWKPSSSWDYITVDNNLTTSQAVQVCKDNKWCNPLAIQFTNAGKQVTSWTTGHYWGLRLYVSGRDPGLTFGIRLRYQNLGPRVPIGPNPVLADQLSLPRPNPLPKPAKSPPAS

G.con 140CF = molecular target: T2, G.con 140CF; assay: as above
T2 construct: also called G.con gp140CF; G.con.env03 gp140CF

D.9009SA V1V2 Tags = assay: as above
Con 6 120 = molecular target: T3, Con 6 120; assay: as above
T3 construct: also called Con 6 gp120

B.con env03 140CF = molecular target: T4, B.con env03 140CF; assay: as above
T4 construct: also called B.con gp140CF

B.CaseA V1/V2 Tags = assay: as above
B.63521_V1V2 Tags = assay: as above
AE.con env03 40CF = molecular target: T5, AE.con env03 40CF; assay: as above
T5 construct: also called AE.con gp140CF; AE.con.env03 gp140CF

A.9004SS V1V2 Tags = molecular target: T6, A.9004SS V1V2 Tags; assay: as above
T6 V1V2 tags construct: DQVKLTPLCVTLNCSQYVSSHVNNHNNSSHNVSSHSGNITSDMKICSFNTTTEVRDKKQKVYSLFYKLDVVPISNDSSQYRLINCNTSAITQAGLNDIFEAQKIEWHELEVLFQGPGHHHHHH

B.62357 140C = molecular target: T7, B.62357 140C; assay: as above
T7 construct: also called B.62357 gp140C

B.040 gp140C = assay: as above
C.CAP206 gp140CF.12 = C.CAP206 gp140CF.12 (HIV-1); assay: as above
gp70 B.CaseA2 V1/V2 [1] = molecular target: T8, gp70 B.CaseA2 V1/V2 (HIV-1 V1V2 on murine leukemia virus gp70); assay: as above
T8 construct: also called B.gp70CaseA2 V1/V2; gp70 B.CaseAV1V2
T8 chain: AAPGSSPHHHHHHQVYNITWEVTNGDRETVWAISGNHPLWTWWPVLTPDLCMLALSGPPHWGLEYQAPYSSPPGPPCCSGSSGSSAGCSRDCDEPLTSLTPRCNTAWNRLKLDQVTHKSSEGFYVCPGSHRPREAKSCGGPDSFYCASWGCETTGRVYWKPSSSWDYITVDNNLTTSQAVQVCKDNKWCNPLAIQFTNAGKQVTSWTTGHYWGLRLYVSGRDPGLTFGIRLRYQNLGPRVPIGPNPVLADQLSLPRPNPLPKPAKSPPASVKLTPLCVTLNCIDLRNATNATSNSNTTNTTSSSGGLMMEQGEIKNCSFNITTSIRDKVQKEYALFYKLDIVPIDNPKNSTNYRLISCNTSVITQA

A.Q23 V1V2 tags = A.Q23 V1V2 tags (HIV-1); assay: as above
AE.97CNG2XF gp140CF = molecular target: T9, AE.97CNG2XF gp140CF (HIV-1); assay: as above
T9 construct: also called E.97CNGX2F gp140CF

B.9021 gp140C = B.9021 gp140C (HIV-1); assay: as above
SIV CPZ US-1 gp140CF = molecular target: T10, SIV CPZ US-1 gp140CF (SIVcpz); assay: as above
T10 construct: also called US-1 SIVCPZ gp140CF
T10 chain: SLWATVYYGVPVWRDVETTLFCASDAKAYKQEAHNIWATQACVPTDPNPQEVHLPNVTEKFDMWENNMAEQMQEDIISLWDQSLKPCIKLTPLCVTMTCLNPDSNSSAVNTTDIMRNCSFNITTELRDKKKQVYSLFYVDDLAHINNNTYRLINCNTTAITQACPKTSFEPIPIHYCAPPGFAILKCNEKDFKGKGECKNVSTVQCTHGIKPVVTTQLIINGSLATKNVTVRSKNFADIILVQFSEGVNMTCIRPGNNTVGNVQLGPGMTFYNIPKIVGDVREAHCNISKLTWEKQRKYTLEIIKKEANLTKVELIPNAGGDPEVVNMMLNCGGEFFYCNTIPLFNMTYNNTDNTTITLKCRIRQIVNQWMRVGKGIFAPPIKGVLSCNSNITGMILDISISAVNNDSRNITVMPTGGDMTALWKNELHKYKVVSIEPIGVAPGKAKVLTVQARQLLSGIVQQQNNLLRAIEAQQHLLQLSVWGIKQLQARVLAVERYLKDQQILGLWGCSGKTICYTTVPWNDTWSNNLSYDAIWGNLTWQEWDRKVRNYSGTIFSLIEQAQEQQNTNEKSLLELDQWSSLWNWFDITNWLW

gp70 B.CaseA2 V1/V2 [2] = molecular target: T8, gp70 B.CaseA2 V1/V2; assay: ELISA
J08 A.92RW020V1V2 = J08 A.92RW020V1V2 (HIV-1); assay: SPR (BIAcore), mAb captured on anti-Fc surface, V1V2 protein injected as analyte, Synagis surface subtracted, global 1:1 Langmuir fit

B1: CH59 reverted unmutated ancestor antibody (antibody, V domains shown)
VH: EVQLVESGGGLVQPGRSLRLSCAASGFTFDDYAMHWVRQAPGKGLEWVSGISWNSGSIGYADSVKGRFTISRDNAKNSLYLQMNSLRAEDTALYYCAKDSPRGELPFDYWGQGTLVTVSS
VL: SYELTQPPSVSVSPGQTARITCSGDALPKKYAYWYQQKSGQAPVLVIYEDSKRPSGIPERFSGSSSGTMATLTISGAQVEDEADYYCYSTDSSGNHRVFGGGTKLTVL
notes: also called CH59 RUA; CH59_RUA
- binding result (MLV gp70 carrier protein): no binding (tested: not given)
- binding result (G.con 140CF): no binding (tested: not given)
- binding result (D.9009SA V1V2 Tags): no binding (tested: not given)
- binding result (Con 6 120): no binding (tested: not given)
- binding result (B.con env03 140CF): no binding (tested: not given)
- binding result (B.CaseA V1/V2 Tags): no binding (tested: not given)
- binding result (B.63521_V1V2 Tags): no binding (tested: not given)
- binding result (AE.con env03 40CF): no binding (tested: not given)
- binding result (A.9004SS V1V2 Tags): no binding (tested: not given)
- binding result (B.62357 140C): no binding (tested: not given)
- binding result (B.040 gp140C): no binding (tested: not given)
- binding result (C.CAP206 gp140CF.12): no binding (tested: not given)
- binding result (gp70 B.CaseA2 V1/V2 [1]): no binding (tested: not given)
- binding result (A.Q23 V1V2 tags): no binding (tested: not given)
- binding result (AE.97CNG2XF gp140CF): no binding (tested: not given)
- binding result (B.9021 gp140C): no binding (tested: not given)
- binding result (SIV CPZ US-1 gp140CF): no binding (tested: not given)

B2: 697D (antibody, V domains shown)
VH: QVQLVQSGAEVKKPGSSVKVSCKASGGNFNTYTISWVRQAPGQGLEWMGRIIPIFGIVNPAQKFPGRVTINVDKSTNTAYMELSSLRSEDTAVYYCATSGVGLHFGYFDYWGQGTQVTVSS
VL: QSVLTQPPSVSGAPGQRVTISCTGSSSNIGAHYDVHWYQQLPGTAPKLLIYGNSNRPSGVPDRFSGSKSGTSASLAITGLQAEDEADYYCQSYDSSLSGYVFGTGTKVTVL
notes: also called mAb 697D; V2 conformational mAb 697D
- EC50 (gp70 B.CaseA2 V1/V2 [2]): 0.04 µg/mL
- Kd (J08 A.92RW020V1V2): 57.5 nM
- koff (J08 A.92RW020V1V2): 0.008 s⁻¹
- kon (J08 A.92RW020V1V2): 140000 M⁻¹ s⁻¹
